Reference: patent US20240092876A1 (priority 2020, published 2024)

Row | Substance | Kd (N1) [pM] | koff (N1) [s⁻¹] | kon (N1) [M⁻¹ s⁻¹] | Kd (N9) [pM] | koff (N9) [s⁻¹] | kon (N9) [M⁻¹ s⁻¹]
1 | FNI3 (antibody) | < 1 | < 1e-07 | 39500 | 2.86 | 9.45e-07 | 330000
2 | 1G01 (antibody) | 868 | 4.79e-05 | 55100 | < 1 | < 1e-07 | 106000
3 | FNI9 (antibody) | 16.4 |  |  | < 1 |  | 
